Reference: US20230348603A1 (VERSEAU THERAPEUTICS, published 2023)

What was measured:
[1] = molecular target: T1, Human VSIG4-L-CHO (human VSIG4 long isoform on CHO-K1 cells) (human, UniProt Q9Y279 20-399); experiment: flow cytometry, CHO-K1 cells expressing hVSIG4-L
T1 construct: also called hVSIG4-L (flow cytometry)
T1 sequence: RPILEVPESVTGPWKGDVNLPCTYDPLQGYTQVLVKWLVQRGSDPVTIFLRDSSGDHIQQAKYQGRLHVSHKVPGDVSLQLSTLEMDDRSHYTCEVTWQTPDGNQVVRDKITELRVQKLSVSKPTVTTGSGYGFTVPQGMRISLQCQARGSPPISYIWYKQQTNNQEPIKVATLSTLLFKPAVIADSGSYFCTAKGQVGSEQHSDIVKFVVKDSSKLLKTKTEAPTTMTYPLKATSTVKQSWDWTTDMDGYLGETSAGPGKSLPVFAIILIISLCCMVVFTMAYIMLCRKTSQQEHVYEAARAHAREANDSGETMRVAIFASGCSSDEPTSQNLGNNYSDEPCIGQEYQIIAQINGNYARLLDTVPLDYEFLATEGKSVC

[2] = molecular target: T2, Human VSIG4-L-Fc (human); experiment: BLI binning on hVSIG4-L-Fc, competitor 14D12 first;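 note: normalized to binding of second antibody without first competitor antibody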
T2 construct: also called hVSIG4-L-Fc; hVSIG4-L

[3] = molecular target: T2, Human VSIG4-L-Fc; experiment: ligand competition ELISA (FJB), blocked ligand iC3b
[4] = molecular target: T2, Human VSIG4-L-Fc; experiment: BLI binning on hVSIG4-L-Fc, competitor 15C03 first;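 note: normalized to binding of second antibody without first competitor antibody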
[5] = molecular target: T3, Human VSIG4-L-His (human, UniProt Q9Y279 20-283); experiment: SPR (FJB)
T3 construct: long isoform ECD with His tag; also called hVSIG4-L
T3 sequence: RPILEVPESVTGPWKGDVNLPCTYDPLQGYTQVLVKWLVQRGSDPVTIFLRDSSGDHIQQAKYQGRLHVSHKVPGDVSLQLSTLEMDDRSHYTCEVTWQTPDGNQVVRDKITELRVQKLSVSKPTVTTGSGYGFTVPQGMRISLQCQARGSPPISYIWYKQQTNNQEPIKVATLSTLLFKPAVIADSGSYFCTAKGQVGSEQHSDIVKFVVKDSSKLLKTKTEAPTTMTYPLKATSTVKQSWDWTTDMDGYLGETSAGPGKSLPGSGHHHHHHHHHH

[6] = molecular target: T2, Human VSIG4-L-Fc; experiment: BLI binning on hVSIG4-L-Fc, competitor 14C05 first;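 note: normalized to binding of second antibody without first competitor antibody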
[7] = molecular target: T2, Human VSIG4-L-Fc; experiment: BLI binning on hVSIG4-L-Fc, competitor 16E10 first;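 note: normalized to binding of second antibody without first competitor antibody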
[8] = molecular target: T2, Human VSIG4-L-Fc; experiment: BLI binning on hVSIG4-L-Fc, competitor 16E03 first;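 note: normalized to binding of second antibody without first competitor antibody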
[9] = molecular target: T2, Human VSIG4-L-Fc; experiment: ligand blocking of iC3b, IgG
[10] = molecular target: T2, Human VSIG4-L-Fc; experiment: ligand competition ELISA (FJB), blocked ligand C3b
[11] = molecular target: T2, Human VSIG4-L-Fc; experiment: ligand blocking of C3b, IgG
[12] = molecular target: T3, Human VSIG4-L-His; experiment: BLI (Octet), IgG on AHC sensor, antigen 100 nM
[13] = molecular target: T4, Human VSIG4-S-His (human, UniProt Q9Y279 20-283); experiment: BLI (Octet), IgG on AHC sensor, antigen 100 nM
T4 construct: short isoform ECD with His tag; also called hVSIG4-S; VISG4-S-His
T4 sequence: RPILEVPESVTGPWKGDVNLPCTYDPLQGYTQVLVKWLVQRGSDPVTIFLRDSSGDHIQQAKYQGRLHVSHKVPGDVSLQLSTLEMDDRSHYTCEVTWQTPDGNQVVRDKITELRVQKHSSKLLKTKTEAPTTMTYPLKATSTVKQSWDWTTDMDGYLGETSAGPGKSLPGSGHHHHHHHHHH

[14] = molecular target: T2, Human VSIG4-L-Fc; experiment: BLI binning on hVSIG4-L-Fc, competitor 12A08 first;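 note: normalized to binding of second antibody without first competitor antibody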
[15] = molecular target: T2, Human VSIG4-L-Fc; experiment: BLI binning on hVSIG4-L-Fc, competitor 12A12 first;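 note: normalized to binding of second antibody without first competitor antibody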
[16] = molecular target: T1, Human VSIG4-L-CHO (human VSIG4 long …); experiment: flow cytometry (FJB), 200 nM mAb, huVSIG4-L CHO-K1 over parental CHO-K1
[17] = molecular target: T1, Human VSIG4-L-CHO (human VSIG4 long …); experiment: flow cytometry (FJB), 200 nM mAb, huVSIG4-L CHO-K1 cells
[18] = molecular target: T5, Human VSIG4-S-Fc (human); experiment: ELISA, IgG 50 nM on coated antigen;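 note: Mouse-human chimeric IgG4 antibodies incubated 1 h on plate-coated VSIG4 proteins, bound IgG detected with HRP-labelled anti-human IgG, irrelevant antibody and protein as specificity controls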
T5 construct: short isoform ECD fused to human Fc1; also called hVSIG4-S

[19] = molecular target: T6, Mouse VSIG4-His (mouse); experiment: ELISA, IgG 50 nM on coated antigen;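 note: Mouse-human chimeric IgG4 antibodies incubated 1 h on plate-coated VSIG4 proteins, bound IgG detected with HRP-labelled anti-human IgG, irrelevant antibody and protein as specificity controls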
T6 construct: ECD with His tag; also called mVSIG4
T6 chain: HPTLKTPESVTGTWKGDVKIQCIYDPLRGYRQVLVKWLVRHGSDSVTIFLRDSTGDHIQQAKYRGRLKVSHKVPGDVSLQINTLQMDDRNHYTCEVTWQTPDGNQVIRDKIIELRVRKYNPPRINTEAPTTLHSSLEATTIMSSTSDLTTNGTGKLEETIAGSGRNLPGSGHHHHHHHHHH

[20] = molecular target: T2, Human VSIG4-L-Fc; experiment: ELISA, IgG 50 nM on coated antigen;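 note: Mouse-human chimeric IgG4 antibodies incubated 1 h on plate-coated VSIG4 proteins, bound IgG detected with HRP-labelled anti-human IgG, irrelevant antibody and protein as specificity controls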
[21] = molecular target: T2, Human VSIG4-L-Fc; experiment: BLI binning on hVSIG4-L-Fc, competitor 13H11 first;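 note: normalized to binding of second antibody without first competitor antibody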
[22] = molecular target: T2, Human VSIG4-L-Fc; experiment: BLI binning on hVSIG4-L-Fc, competitor 15C04 first;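 note: normalized to binding of second antibody without first competitor antibody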
[23] = molecular target: T2, Human VSIG4-L-Fc; experiment: BLI binning on hVSIG4-L-Fc, competitor 15A06 first;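 note: normalized to binding of second antibody without first competitor antibody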
[24] = molecular target: T7, Cynomolgus Monkey VSIG4-L-His (cynomolgus monkey); experiment: ELISA, IgG 50 nM on coated antigen; ELISA, bivalent IgG on plate-coated cyVSIG4-L (avid format)
T7 construct: ECD with His tag; also called cyVSIG4-L; cyno VSIG4-L-His
T7 chain: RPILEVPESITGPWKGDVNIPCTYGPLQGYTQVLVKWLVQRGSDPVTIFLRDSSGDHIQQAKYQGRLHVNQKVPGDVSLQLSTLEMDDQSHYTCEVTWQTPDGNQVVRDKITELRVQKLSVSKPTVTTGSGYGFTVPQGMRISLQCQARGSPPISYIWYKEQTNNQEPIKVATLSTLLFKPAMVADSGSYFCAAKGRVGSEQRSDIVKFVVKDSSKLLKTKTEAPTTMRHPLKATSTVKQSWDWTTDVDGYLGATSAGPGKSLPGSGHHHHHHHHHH

[25] = molecular target: T2, Human VSIG4-L-Fc; experiment: blocking ELISA, biotin-C3b on coated hVSIG4-L-Fc
[26] = molecular target: T2, Human VSIG4-L-Fc; experiment: blocking ELISA, biotin-iC3b on coated hVSIG4-L-Fc
[27] = molecular target: T5, Human VSIG4-S-Fc; experiment: ELISA, Fab P.E. 1:5 on coated antigen;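 note: mouse Fab P.E. samples in 1% skimmed milk PBS, bound to antigen-coated wells for 1 h at room temperature, read as absorbance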
[28] = molecular target: T7, Cynomolgus Monkey VSIG4-L-His; experiment: ELISA, Fab P.E. 1:5 on coated antigen;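 note: mouse Fab P.E. samples in 1% skimmed milk PBS, bound to antigen-coated wells for 1 h at room temperature, read as absorbance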
[29] = molecular target: T2, Human VSIG4-L-Fc; experiment: ELISA, Fab P.E. 1:5 on coated antigen;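 note: mouse Fab P.E. samples in 1% skimmed milk PBS, bound to antigen-coated wells for 1 h at room temperature, read as absorbance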
[30] = molecular target: T3, Human VSIG4-L-His; experiment: SPR (Biacore T200), Fab P.E. 1:5 over immobilised antigen

B1: 15C03 mouse/human chimeric IgG4 (S228P) kappa (antibody, V domains shown)
VH: EVKLLESGPGLVKPSQSLSLTCTVTGYSITSDYAWNWIRQFPGNKLEWMGYISYSGSTRYNPSLKSRISITRDTSNNQFFLQLNSVTTEDTATYYCARSGYAAMDYWGQGTSVTVSS
VL: ENVLTQSPAIMSASPGEKVTMTCRASSSVSSSYLHWYQQKSGASPKLWIYSTSNLASGVPARFSGSGSGTSYSLTISSVEAEDAATYYCQQYSGYPLTFGSGTKLEIKR
- EC50 [1]: 2.3 nM
- normalized maximum binding nm shift [2]: 0.41 normalized
- IC50 [3]: 12.8 nM
- normalized maximum binding nm shift [4]: 0.15 normalized
- Kd [5]: 17.9 nM
- normalized maximum binding nm shift [6]: 0.44 normalized
- normalized maximum binding nm shift [7]: 0.93 normalized
- normalized maximum binding nm shift [8]: 0.13 normalized
- Percent Blocking iC3b [9]: 90%
- IC50 [10]: 2.4 nM
- Percent Blocking C3b [11]: 90%
- Kd [12]: 32.1 nM
- Kd [13]: 18.6 nM
- normalized maximum binding nm shift [14]: 0.8 normalized
- normalized maximum binding nm shift [15]: 0.76 normalized
- Binding (200 nM) Fold-Over-Parental [16]: 83 fold
- Binding (200 nM) MFI [17]: 48900 MFI
- ELISA OD450 [18]: 3.64 OD450
- ELISA OD450 [19]: 0.057 OD450
- ELISA OD450 [20]: 4.4 OD450
- normalized maximum binding nm shift [21]: 0.74 normalized
- normalized maximum binding nm shift [22]: 0.89 normalized
- normalized maximum binding nm shift [23]: 0.82 normalized
- ELISA OD450 [24]: 4.5 OD450

B2: 12A08 mouse Fab (periplasmic extract) (Fab, V domains shown)
VH: EVMLVESGGGLVKPGGSLKLSCAASGFTFDDFYMYWVRQTPEKRLEWVASISDGGTYTYYPDSVKGRFTISRDNAKNTLYLQLSSLKSEDTAMYYCARGVDKYYYAMDYWGQGTSVTVSS
VL: QILLTQSPAIMSASPGEKVTITCSASSSVSYMHWFQQKPGTSPKLWIYSTSNLASGVPARFSGSGSGTSYSLTISRMEAEDAATYYCQQRSSYPLTFGAGTKLELK
notes: mouse Fab with C-terminal His6-c-myc tag
- Percent Blocking C3b [25]: 57.6%
- Percent Blocking iC3b [26]: 53.4%
- ELISA OD450 [27]: 4.09 OD450
- ELISA OD450 [28]: 4.27 OD450
- ELISA OD450 [29]: 4.45 OD450
- koff [30]: 0.013 s⁻¹

B3: 12A12 mouse Fab (periplasmic extract) (Fab, V domains shown)
VH: QVQMKQSGAELAKPGASVKMSCKASGYTFTNYWMHWVKQRPGQGLEWIGYINPSTGYTDYNQNFKDRATLTADKSSSTAYMQLSSLTSEDSAVYYCIRGSDYYGRDYWGQGTTLTVSS
VL: DIQMTQTTSSLSASLGDRVTISCRASQDISNYLNWYQQKPDGTLKLLIYYTSRLHSGVPSRFSGSGSGTDYSLTISNLEQEDIATYFCRQGNTLPWTFGGGTKLEIK
notes: as for B2
- Percent Blocking C3b [25]: 74.8%
- Percent Blocking iC3b [26]: 76.5%
- ELISA OD450 [27]: 4.18 OD450
- ELISA OD450 [28]: 4.37 OD450
- ELISA OD450 [29]: 4.42 OD450
- koff [30]: 0.0038 s⁻¹
